Data reported in patent publication US20230129812A1 (ACCELERON PHARMA, published 2023).
Numbering of substitutions follows the chain as printed. In names and notes the source's numbering stands.

B1: GDF11 (ligand, UniProt O95390 299-407, looked up)
chain: NLGLDCDEHSSESRCCRYPLTVDFEAFGWDWIIAPKRYKANYCSGQCEYMFMQKYPHTHLVQQANPRGSAGPCCTPTKMSPINMLYFNDKQQIIYGKIPGMVVDRCGCS
notes: also called BMP11
B2: BMP10 (ligand, UniProt O95393 317-424, looked up)
chain: NAKGNYCKRTPLYIDFKEIGWDSWIIAPPGYEAYECRGVCNYPLAEHLTPTKHAIIQALVHLKNSQKASKACCVPTKLEPISILYLDKGVVTYKFKYEGMAVSECGCR
B3: ActRIIB(L79D 25-131)-hFc (Fc fusion)
chain: ETRECIYYNANWELERTNQSGLERCEGEQDKRLHCYASWRNSSGTIELVKKGCWDDDFNCYDRQECVATEENPQVYFCCCEGNFCNERFTHLPEAGGPEVTYEPPPTGGGTHTCPPCPAPELLGGPSVFLFPPKPKDTLMISRTPRVTCVVVDVSHEDPEVKFNWYVDGVEVHNAKTKPREEQYNSTYRVVSVLTVLHQDWLNGKEYKCKVSNKALPAPIEKTISKAKGQPREPQVYTLPPSREEMTKNQVSLTCLVKGFYPSDIAVEWESNGQPENNYKTTPPVLDSDGSFFLYSKLTVDKSRWQQGNVFSCSVMHEALHNHYTQKSLSLSPGK
B4: Soluble ActRIIB-Fc D54A (Table 11) (Fc fusion, UniProt Q13705 19-119, looked up, not shown: a dimerising Fc or GST)
chain: SGRGEAETRECIYYNANWELERTNQSGLERCEGEQAKRLHCYASWANSSGTIELVKKGCWLDDFNCYDRQECVATEENPQVYFCCCEGNFCNERFTHLPEA
B5: Soluble ActRIIB-Fc F82A (Table 11) (Fc fusion, UniProt Q13705 19-119, looked up, not shown: a dimerising Fc or GST)
chain: B4 chain with A36D, F64A
B6: Soluble ActRIIB-Fc R40A (Table 11) (Fc fusion, UniProt Q13705 19-119, looked up, not shown: a dimerising Fc or GST)
chain: B4 chain with R22A, A36D
B7: Soluble ActRIIB-Fc L79A (Table 11) (Fc fusion, UniProt Q13705 19-119, looked up, not shown: a dimerising Fc or GST)
chain: B4 chain with A36D, L61A
B8: ActRIIB-Fc homodimer (Fc fusion)
chain: GRGEAETRECIYYNANWELERTNQSGLERCEGEQDKRLHCYASWRNSSGTIELVKKGCWLDDFNCYDRQECVATEENPQVYFCCCEGNFCNERFTHLPEAGGPEVTYEPPPTAPTGGGTHTCPPCPAPELLGGPSVFLFPPKPKDTLMISRTPEVTCVVVDVSHEDPEVKFNWYVDGVEVHNAKTKPREEQYNSTYRVVSVLTVLHQDWLNGKEYKCKVSNKALPVPIEKTISKAKGQPREPQVYTLPPSREEMTKNQVSLTCLVKGFYPSDIAVEWESNGQPENNYKTTPPVLDSDGSFFLYSKLTVDKSRWQQGNVFSCSVMHEALHNHYTQKSLSLSPGK
notes: also called ActRIIB-Fc:ActRIIB-Fc homodimer
B9: ALK4-Fc:ActRIIB-Fc heterodimer (Fc fusion)
chain 1: B8 chain with V226A, E252K, D295K
chain 2: SGPRGVQALLCACTSCLQANYTCETDGACMVSIFNLDGMEHHVRTCIPKVELVPAGKPFYCLSSEDLRNTHCCYTDYCNRIDLRVPSGHLKEPEHPSMWGPVETGGGTHTCPPCPAPELLGGPSVFLFPPKPKDTLMISRTPEVTCVVVDVSHEDPEVKFNWYVDGVEVHNAKTKPREEQYNSTYRVVSVLTVLHQDWLNGKEYKCKVSNKALPAPIEKTISKAKGQPREPQVYTLPPSREEMTKNQVSLTCLVKGFYPSDIAVEWESNGQPENNYDTTPPVLDSDGSFFLYSDLTVDKSRWQQGNVFSCSVMHEALHNHYTQKSLSLSPG
notes: The receptor parts are the same in all three; also called ALK4-Fc:ActRIIB-Fc heterodimeric complex; ALK4:ActRIIB heterodimer

Columns and labels:
ActRIIA-mFc [1] = molecular target: T1, ActRIIA-mFc (human, UniProt P27037 21-135); experiment: SPR (Biacore); ligand amine-coupled to CM5 chip, receptor-Fc injected
T1 construct: not shown: minimal linker and mouse Fc domain
T1 sequence (P27037 21-135): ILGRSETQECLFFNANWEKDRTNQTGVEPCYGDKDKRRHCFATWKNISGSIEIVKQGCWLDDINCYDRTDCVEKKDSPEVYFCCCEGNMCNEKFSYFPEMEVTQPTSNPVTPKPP

[2] = molecular target: T2, Soluble ActRIIB-Fc +15tail (Homo sapiens (Human), UniProt Q13705 19-134); experiment: SPR (Biacore); ligand coupled, receptor flowed over (as reported in WO2006/012627)
T2 construct: not shown: linker and Fc
T2 sequence (looked up): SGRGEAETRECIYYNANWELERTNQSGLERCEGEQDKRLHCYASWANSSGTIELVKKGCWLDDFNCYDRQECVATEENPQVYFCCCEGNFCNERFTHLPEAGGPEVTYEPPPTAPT
Description: (§1) Other variants have been generated and tested, as reported in WO2006/012627 (incorporated herein by reference in its entirety). See, e.g., pp. 59-60, using ligands coupled to the device and flowing receptor over the coupled ligands. […] Table 11 showing data with respect to these variants is reproduced below: […]

ActRIIA-mFc [3] = molecular target: T1, ActRIIA-mFc; experiment: SPR (Biacore), similar binding assay
Description: GDF11 or activin A were immobilized on a Biacore™ CM5 chip using standard amine-coupling procedure. ActRIIA-hFc and ActRIIA-mFc proteins were loaded onto the system, and binding was measured. […] Using a similar binding assay, ActRIIA-hFc was determined to have high to moderate affinity for other TGF-beta superfamily ligands including, for example, activin B, GDF8, BMP6, and BMP10. ActRIIA-mFc behaved similarly.

GDF8 [4] = molecular target: T3, GDF8 (UniProt O14793 267-375); experiment: SPR (Biacore)
T3 construct: also called myostatin
T3 sequence (looked up): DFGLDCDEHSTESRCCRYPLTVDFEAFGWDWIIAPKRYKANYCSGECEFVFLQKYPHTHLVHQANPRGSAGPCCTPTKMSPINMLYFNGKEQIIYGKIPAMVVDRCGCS

BMP10 [5] = molecular target: B2; experiment: SPR (Biacore)
BMP6 [6] = molecular target: T4, BMP6 (UniProt P22004 375-513, limits assumed); experiment: SPR (Biacore)
T4 sequence (looked up): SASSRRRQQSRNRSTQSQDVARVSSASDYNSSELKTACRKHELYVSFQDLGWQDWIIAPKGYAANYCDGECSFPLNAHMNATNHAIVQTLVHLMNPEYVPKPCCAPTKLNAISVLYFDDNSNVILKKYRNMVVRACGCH

activin A [7] = molecular target: T5, activin A (UniProt P08476 311-426); experiment: SPR (Biacore); ligand coupled, receptor flowed over (as reported in WO2006/012627); - means ~1/2 WT binding
T5 construct: also called ActA
T5 sequence (looked up): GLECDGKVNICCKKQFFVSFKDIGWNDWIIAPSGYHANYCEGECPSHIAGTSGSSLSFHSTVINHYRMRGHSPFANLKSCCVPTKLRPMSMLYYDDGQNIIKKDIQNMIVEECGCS
Description: as §1

GDF11 [8] = molecular target: B1; experiment: SPR (Biacore); ligand coupled, receptor flowed over (as reported in WO2006/012627)
Description: as §1

GDF11 [9] = molecular target: B1; experiment: SPR (Biacore); ligand coupled, receptor flowed over (as reported in WO2006/012627); - means ~1/2 WT binding
Description: as §1

activin A [10] = molecular target: T5, activin A; experiment: SPR (Biacore); ligand coupled, receptor flowed over (as reported in WO2006/012627); + means WT
Description: as §1

GDF11 [11] = molecular target: B1; experiment: SPR (Biacore); receptor-Fc captured by anti-Fc antibody, ligand injected
Description: (§2) A Biacore™-based binding assay was used to compare ligand binding selectivity of the ALK4-Fc:ActRIIB-Fc heterodimeric complex described above with that of ActRIIB-Fc and ALK4-Fc homodimer complexes. The ALK4-Fc:ActRIeB-Fc heterodimer, […], and ALK4-Fc homodimer were independently captured onto the system using an anti-Fc antibody. Ligands were injected and allowed to flow over the captured receptor protein. Results are summarized in Table 13 below, in which ligand off-rates (kd) most indicative of effective polypeptides are denoted in bold.

GDF8 [12] = molecular target: T3, GDF8; experiment: as above
Description: as §2

activin B = molecular target: T6, activin B (UniProt P09529 293-407); experiment: as above
T6 sequence (looked up): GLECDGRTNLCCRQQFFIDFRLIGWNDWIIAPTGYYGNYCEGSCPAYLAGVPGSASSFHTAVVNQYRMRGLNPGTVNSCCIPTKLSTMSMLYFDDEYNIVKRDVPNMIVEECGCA
Description: as §2

BMP10 [13] = molecular target: B2; experiment: as above
Description: as §2

BMP9 = molecular target: T7, BMP9 (UniProt Q9UK05 320-429); experiment: as above
T7 construct: also called GDF2
T7 sequence (looked up): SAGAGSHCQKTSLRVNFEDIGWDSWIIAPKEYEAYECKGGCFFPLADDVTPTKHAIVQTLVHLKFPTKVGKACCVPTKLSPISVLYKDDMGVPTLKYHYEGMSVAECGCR
Description: as §2

activin A [14] = molecular target: T5, activin A; experiment: as above
Description: as §2

BMP6 [15] = molecular target: T4, BMP6; experiment: as above
Description: as §2

GDF3 = molecular target: T8, GDF3 (UniProt Q9NR23 251-364); experiment: as above
T8 construct: also called VGR2
T8 sequence (looked up): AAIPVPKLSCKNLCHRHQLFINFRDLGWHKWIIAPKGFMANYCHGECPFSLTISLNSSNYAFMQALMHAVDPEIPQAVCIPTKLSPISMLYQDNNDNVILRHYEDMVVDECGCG
Description: as §2

Binder: B1
- binding result (ActRIIA-mFc [1]): binds
- Kd [2]: 19 nM

Binder: B2
- binding result (ActRIIA-mFc [3]): binds

Binder: B3
- binding result (GDF8 [4]): binds
- binding result (BMP10 [5]): binds
- binding result (BMP6 [6]): binds

Binder: B4
- binding result (activin A [7]): binds
- binding result (GDF11 [8]): no binding

Binder: B5
- binding result (GDF11 [9]): binds

Binder: B6
- binding result (GDF11 [9]): binds
- binding result (activin A [7]): binds

Binder: B7
- binding result (activin A [10]): binds
- binding result (GDF11 [8]): no binding

Binder: B8
- Kd (GDF11 [11]): 0.002 nM
- koff (GDF11 [11]): 0.00011 s⁻¹
- kon (GDF11 [11]): 5e+07 M⁻¹ s⁻¹
- Kd (GDF8 [12]): 0.28 nM
- koff (GDF8 [12]): 0.00023 s⁻¹
- kon (GDF8 [12]): 830000 M⁻¹ s⁻¹
- Kd (activin B): 0.02 nM
- koff (activin B): 0.0001 s⁻¹
- kon (activin B): 5.1e+06 M⁻¹ s⁻¹
- Kd (BMP10 [13]): 0.011 nM
- koff (BMP10 [13]): 0.00026 s⁻¹
- kon (BMP10 [13]): 2.3e+07 M⁻¹ s⁻¹
- Kd (BMP9): 0.077 nM
- koff (BMP9): 0.0011 s⁻¹
- kon (BMP9): 1.4e+07 M⁻¹ s⁻¹
- Kd (activin A [14]): 0.019 nM
- koff (activin A [14]): 0.00023 s⁻¹
- kon (activin A [14]): 1.2e+07 M⁻¹ s⁻¹
- Kd (BMP6 [15]): 0.19 nM
- koff (BMP6 [15]): 0.0068 s⁻¹
- kon (BMP6 [15]): 3.2e+07 M⁻¹ s⁻¹
- Kd (GDF3): 1.5 nM
- koff (GDF3): 0.0022 s⁻¹
- kon (GDF3): 1.4e+06 M⁻¹ s⁻¹

Binder: B9
- Kd (GDF11 [11]): 0.003 nM
- koff (GDF11 [11]): 0.00011 s⁻¹
- kon (GDF11 [11]): 3.8e+07 M⁻¹ s⁻¹
- Kd (GDF8 [12]): 0.55 nM
- koff (GDF8 [12]): 0.00021 s⁻¹
- kon (GDF8 [12]): 390000 M⁻¹ s⁻¹
- Kd (activin B): 0.006 nM
- koff (activin B): 4e-05 s⁻¹
- kon (activin B): 7.1e+06 M⁻¹ s⁻¹
- Kd (BMP10 [13]): 0.074 nM
- koff (BMP10 [13]): 0.0041 s⁻¹
- kon (BMP10 [13]): 5.6e+07 M⁻¹ s⁻¹
- Kd (BMP9): 3.4 nM
- Kd (activin A [14]): 0.012 nM
- koff (activin A [14]): 0.00015 s⁻¹
- kon (activin A [14]): 1.3e+07 M⁻¹ s⁻¹
- Kd (BMP6 [15]): 2.7 nM
- koff (BMP6 [15]): 0.0055 s⁻¹
- kon (BMP6 [15]): 2e+06 M⁻¹ s⁻¹
- Kd (GDF3): 4.9 nM
- koff (GDF3): 0.017 s⁻¹
- kon (GDF3): 3.4e+06 M⁻¹ s⁻¹
